Data on six molecules can be found in patent US20240043542A1 (published 2024).

Changes are numbered by the printed parent chain. Where two headings read alike, the source gives them in different places.

Experiment [1] has as its target T1, cynomolgus monkey B7-H4 on the cell surface (cynomolgus monkey, UniProt Q7Z7D3 25-282 (human entry)).
T1 construct: full-length, on transfected HEK293T cells
T1 chain: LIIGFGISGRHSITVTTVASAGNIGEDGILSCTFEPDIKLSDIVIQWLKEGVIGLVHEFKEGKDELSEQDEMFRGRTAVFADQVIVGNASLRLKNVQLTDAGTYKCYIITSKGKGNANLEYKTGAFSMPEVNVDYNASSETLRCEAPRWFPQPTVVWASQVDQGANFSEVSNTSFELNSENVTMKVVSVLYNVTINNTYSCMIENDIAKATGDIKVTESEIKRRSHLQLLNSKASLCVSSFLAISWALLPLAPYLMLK
Kind of experiment: flow cytometry, 100 nM, transfected HEK293T. For orientation: In flow cytometry, cells or beads pass a laser one at a time.
Experimental: (§1) HEK293T cell lines were transfected to express full-length human, cynomolgus monkey, mouse, or rat B7-H4. In addition, the endogenous human B7-H4 expressing SK-BR-3 breast cancer cell line was used to assess the ability of the antibodies to bind B7-H4 expressed on the cell surface. 1×10⁵ parental HEK293T or transfected HEK293T cell lines were incubated with 100 nM of the B7-H4 antibodies. Following incubation, cells were pelleted, washed, and incubated with a secondary labeling antibody, and samples were acquired on a flow cytometer. Fold binding over the parental cell line (FOP) was calculated as follows: MFI transfected HKE293T cells/MFI parental HEK293T cells.

Experiment [2] concerns the target T2, human B7-H4 on the cell surface (human, UniProt Q7Z7D3 25-282).
T2 construct: full-length human B7-H4 on transfected HEK293T cells or endogenous on SK-BR-3 cells; also called SK-BR-3 (endogenous human B7-H4)
T2 sequence: T1 chain with I53L, L242F, A252S
Kind of experiment: flow cytometry, 100 nM, transfected HEK293T.
Experimental: as §1

The target in experiment [3] is T3, recombinant human B7-H4-huIgG1 (human).
T3 construct: also called B7-H4-extracellular domain (ECD)
Kind of experiment: BLI, antigen on Protein A tips. (In general: BLI is a label-free optical method that tracks binding on a fibre tip over time.)
Experimental: (§2) Binding affinities of anti-B7-H4 antibodies to B7-H4-extracellular domain (ECD) were determined by biolayer interferometry (BLI). […] Anti-B7-H4 antibodies were then evaluated for binding.

Experiment [4] concerns the target T4, cynomolgus monkey B7-H4 (recombinant, BLI) (cynomolgus monkey, UniProt Q7Z7D3 25-259 (human entry)).
T4 construct: also called Cynomolgus B7-H4
T4 sequence: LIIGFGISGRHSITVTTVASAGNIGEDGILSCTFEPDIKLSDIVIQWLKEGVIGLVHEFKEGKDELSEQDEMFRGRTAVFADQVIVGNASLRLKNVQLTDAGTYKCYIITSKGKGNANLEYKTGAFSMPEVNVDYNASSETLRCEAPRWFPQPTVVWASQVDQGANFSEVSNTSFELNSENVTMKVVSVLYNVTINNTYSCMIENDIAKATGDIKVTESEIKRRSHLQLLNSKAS
Put plainly: BLI, antigen on Protein A tips.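 Note: Anti-B7-H4 antibodies assessed for affinity toward the B7-H4 extracellular domain using biolayer interferometry.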
Experimental: as §2

The target of experiment [5] is T5, mouse B7-H4 (recombinant, BLI) (mouse, UniProt Q7TSP5 29-256, limits assumed).
T5 construct: also called murine B7-H4
T5 sequence: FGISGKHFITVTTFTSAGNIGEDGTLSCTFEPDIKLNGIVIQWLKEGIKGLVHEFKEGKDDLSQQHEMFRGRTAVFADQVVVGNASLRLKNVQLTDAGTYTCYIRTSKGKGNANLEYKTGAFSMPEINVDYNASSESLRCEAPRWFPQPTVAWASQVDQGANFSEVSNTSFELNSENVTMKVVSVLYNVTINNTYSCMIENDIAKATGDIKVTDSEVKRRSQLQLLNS
Put plainly: BLI, antigen on Protein A tips.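 Note: Anti-B7-H4 antibodies assessed for affinity toward the B7-H4 extracellular domain using biolayer interferometry.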
Experimental: as §2

Experiment [6] deals with T6, mouse B7-H4 on the cell surface (mouse, UniProt Q7TSP5 25-257).
T6 construct: full-length, on transfected HEK293T cells
T6 sequence: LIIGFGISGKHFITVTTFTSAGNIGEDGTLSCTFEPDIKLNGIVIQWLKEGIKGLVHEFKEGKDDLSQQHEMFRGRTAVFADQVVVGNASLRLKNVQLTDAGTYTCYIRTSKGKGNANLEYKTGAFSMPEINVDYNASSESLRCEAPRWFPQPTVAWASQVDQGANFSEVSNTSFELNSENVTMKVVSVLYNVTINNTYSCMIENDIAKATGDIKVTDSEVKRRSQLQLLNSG
Put plainly: flow cytometry, transfected HEK293T.

The target of experiment [7] is T2, human B7-H4 on the cell surface. Kind of experiment: flow cytometry, SK-BR-3 cells.
Experimental: (§3) Following incubation, cells were pelleted, washed and incubated with a secondary labeling antibody and samples were acquired on a flow cytometer. Data was analyzed using the FlowJo software and MFI was plotted vs. antibody concentration. The EC50 cell binding potency was calculated using nonlinear regression curve fit (GraphPad Prism).
Experiment [8] addresses T6, mouse B7-H4 on the cell surface. Put plainly: flow cytometry, 100 nM, transfected HEK293T.
Experimental: as §1
In experiment [9] the target is T7, B7-H4 IgV-huIgG1 (human).
T7 construct: also called N-terminal domain of human B7-H4
Put plainly: SPR, antibody captured by anti-human Fab, antigen in flow. A general note: Surface plasmon resonance follows binding to a sensor surface in real time, without labels.
Experimental: (§4) Briefly, anti-human Fab antibody was immobilized on a carboxyl-derivatized SPR chip surface, and anti-B7-H4 antibodies were captured on the resulting surface at 5 ug/ml for 30 seconds.

Experiment [10] addresses T1, cynomolgus monkey B7-H4 on the cell …. Put plainly: flow cytometry, transfected 293 cells.
Experimental: as §3
The target of experiment [11] is T6, mouse B7-H4 on the cell surface. Kind of experiment: flow cytometry, transfected 293 cells.
Experimental: as §3
The target in experiment [12] is T8, rat B7-H4 on the cell surface (rat, UniProt Q501W4 25-257).
T8 construct: full-length, on transfected HEK293T cells
T8 sequence: T6 sequence with R109H, Q228E
Kind of experiment: flow cytometry, transfected 293 cells.
Experimental: as §3

Experiment [13] deals with T2, human B7-H4 on the cell surface. Put plainly: cell-based or functional assay.
Experiment [14] has the same target. Kind of experiment: cell-based or functional assay. This is another data set of the same source.
Experiment [15] shares this target. Kind of experiment: flow cytometry, SK-BR-3 cells. This is another data set of the same source.
Experimental: (§5) The fucosylated and afucosylated anti B7-H4 antibodies were also characterized by flow cytometry. In these experiments, HEK293T cell lines were transfected to express full-length cynomolgus monkey, mouse, or rat B7-H4. In addition, the endogenous human B7-H4 expressing SK-BR-3 breast cancer cell lines were used to assess the cell binding potency of B7-H4 antibodies. […] Following incubation, cells were pelleted, washed, incubated with a secondary labeling antibody, and run on a flow cytometer. Data were analyzed using the FlowJo software. MFI was plotted vs. antibody concentration, and the EC50 cell binding potency was calculated using nonlinear regression curve fit (GraphPad Prism).
Experiment [16] deals with T1, cynomolgus monkey B7-H4 on the cell …. Kind of experiment: flow cytometry, transfected 293 cells.
Experimental: as §5
In experiment [17] the target is T6, mouse B7-H4 on the cell surface. Put plainly: flow cytometry, transfected 293 cells. The source holds these as a separate data set.
Experimental: as §5
For experiment [18], the target named is T8, rat B7-H4 on the cell surface. Put plainly: flow cytometry, transfected 293 cells. This is another data set of the same source.
Experimental: as §5
Experiment [19] deals with T2, human B7-H4 on the cell surface. Kind of experiment: cell-based or functional assay. This is another data set of the same source.
Experiment [20] deals with T7, B7-H4 IgV-huIgG1. Kind of experiment: SPR, protocol of Example 4.
Experimental: as §4

B1: B7-H4 antibody 15503 (antibody, human IgG1, kappa, V domains shown)
VH: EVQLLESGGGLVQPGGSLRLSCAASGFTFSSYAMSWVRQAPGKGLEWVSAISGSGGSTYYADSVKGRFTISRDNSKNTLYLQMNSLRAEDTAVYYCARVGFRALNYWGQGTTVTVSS
VL: DIQLTQSPSSVSASVGDRVTITCRASQDISSWLAWYQQKPGKAPKLLIYAASSLQSGVPSRFSGSGSGTDFTLTISSLQPEDFATYYCQQATSYPPWTFGGGTKVEIKR
notes: human IgG1/kappa
Take B1: the “FOP (fold binding over the parental cell line)” value came out at 877 fold in [1] and 289 fold in experiment [2]. In addition, the Kd (as a rule, the constant that tells how readily two partners part at equilibrium) in [3] amounted to 10.4 nM; in experiment [4], 6.32 nM. The koff (usually the rate constant with which the complex falls apart) stood at 0.0205 s⁻¹ in experiment [3] and 0.0115 s⁻¹ in experiment [4]. The kon – broadly, the second-order rate constant of association – in [3] came to 1.96e+06 M⁻¹ s⁻¹; in experiment [4], 1.82e+06 M⁻¹ s⁻¹. Moreover, the results for the binding result in [5] and in [6] were “no binding” and “no binding (tested: FOP 10; 100 nM antibody)”, respectively.

B2: B7-H4 antibody 15495 (antibody, human IgG1, kappa, V domains shown)
VH: QVQLVQSGAEVKKPGSSVKVSCKASGGTFSSYAISWVRQAPGQGLEWMGGIIPIFGTASYAQKFQGRVTITADESTSTAYMELSSLRSEDTAVYYCARQQYDGRRYFGLWGRGTLVTVSS
VL: EIVMTQSPATLSVSPGERATLSCRASQSVSSNLAWYQQKPGQAPRLLIYSASTRATGIPARFSGSGSGTEFTLTISSLQSEDFAVYYCQQVNVWPPTFGGGTKVEIKR
notes: human IgG1/kappa
Consider B2, for which the EC50 (in general, the midpoint of the concentration-response curve) in experiment [7] was found to be 61.2 nM. In addition, the “FOP (fold binding over the parental cell line)” value in experiment [1] was 524 fold; in [2], 619 fold. Moreover, the Kd in experiment [3] was 9.44 nM; in experiment [4] it was 5.17 nM. In addition, the koff in [3] is 0.0272 s⁻¹; in experiment [4], 0.0168 s⁻¹. For the same molecule, the kon in experiment [3] is 2.89e+06 M⁻¹ s⁻¹; in [4], 3.25e+06 M⁻¹ s⁻¹. The binding result is reported as “no binding” in experiment [5] and “no binding (tested: FOP 10; 100 nM antibody)” in [6].

B3: B7-H4 antibody 15465 (antibody, human IgG1, kappa, V domains shown)
VH: QVQLQESGPGLVKPSQTLSLTCTVSGGSISSGGYYWSWIRQHPGKGLEWIGNIYYSGSTYYNPSLKSRVTISVDTSKNQFSLKLSSVTAADTAVYYCARESSTISADFDLWGRGTLVTVSS
VL: DIQMTQSPSSVSASVGDRVTITCRASQGISRWLAWYQQKPGKAPKLLIYAASSLQSGVPSRFSGSGSGTDFTLTISSLQPEDFATYYCQQAHTFPYTFGGGTKVEIKR
notes: human IgG1/kappa
Consider B3, for which the EC50 in experiment [7] is 2.13 nM; in experiment [10] it was 4.9 nM; in experiment [11] it was 5.34 nM; in experiment [12] it was 1.47 nM. For the same molecule, the “FOP (fold binding over the parental cell line)” value was found to be 1320 fold in experiment [1], 690 fold in experiment [8] and 626 fold in [2]. Moreover, the Kd was found to be 17.3 nM with B7-H4 IgV-huIgG1 [9], 51.3 nM in experiment [3], 51.1 nM in experiment [4] and 89.6 nM in experiment [5]. The koff with B7-H4 IgV-huIgG1 [9] came to 0.00417 s⁻¹; in [3] it was 0.0248 s⁻¹; in [4] it was 0.0278 s⁻¹; in experiment [5], 0.0265 s⁻¹. The kon in the experiment with B7-H4 IgV-huIgG1 [9] was 241000 M⁻¹ s⁻¹; in experiment [3], 484000 M⁻¹ s⁻¹; in experiment [4], 544000 M⁻¹ s⁻¹; in experiment [5], 296000 M⁻¹ s⁻¹. Further, the “Donor 1 Max IFNγ” value in experiment [13] worked out at 230 pg/mL. Besides, the “Donor 2 Max IFNγ” value in experiment [13] amounted to 134 pg/mL. For the same molecule, the “Donor 3 Max IFNγ” value in [13] was 1520 pg/mL. Besides, the “Donor 4 Max IFNγ” value in experiment [13] was determined as 865 pg/mL. In addition, the “aAPC Assay EC50 (IFNγ production)” value in experiment [13] amounted to 4310 nM.

B4: B7-H4 antibody 20506, fucosylated (antibody, human IgG1, kappa, V domains shown)
VH: B3 VH with V2L, Q16E, V24A, S31H, I71M
VL: B3 VL
modifications: normally fucosylated Fc glycan (made in CHO-x cells)
notes: human IgG1/kappa
As for B4, in experiment [14], the “ADCC Assay EC50 (SK-BR-3 target cells)” value was found to be 0.0135 nM. Besides, the EC50 turned out to be 0.739 nM in [15], 1.77 nM in experiment [16], 1.77 nM in [17] and 3.25 nM in experiment [18]. Also, the “aAPC Assay EC50 (IFNγ production)” value in [19] was 0.95 nM. Further, the Kd with B7-H4 IgV-huIgG1 [20] amounted to 1.93 nM. Besides, in the experiment with B7-H4 IgV-huIgG1 [20], the koff was determined as 0.000703 s⁻¹. In addition, in the experiment with B7-H4 IgV-huIgG1 [20], the kon was found to be 365000 M⁻¹ s⁻¹.

B5: B7-H4 antibody 20506, afucosylated (antibody, human IgG1, kappa, V domains shown)
VH: B3 VH with V2L, Q16E, V24A, S31H, I71M
VL: B3 VL
modifications: afucosylated Fc glycan (made in CHO-y cells)
notes: human IgG1/kappa
On to B5, for which the “ADCC Assay EC50 (SK-BR-3 target cells)” value in experiment [14] stood at 0.0015 nM. The EC50 in [15] is 0.767 nM; in [16] it was 1.77 nM; in experiment [17] it was 1.77 nM. For the same molecule, the “aAPC Assay EC50 (IFNγ production)” value in [19] worked out at 1.05 nM. In addition, in the experiment with B7-H4 IgV-huIgG1 [20], binding was put at a Kd of 2.01 nM. The molecule further returned a koff with B7-H4 IgV-huIgG1 [20] of 0.000725 s⁻¹. The molecule further returned a kon with B7-H4 IgV-huIgG1 [20] of 360000 M⁻¹ s⁻¹.

B6: B7-H4 antibody 15441 (antibody, human IgG1, kappa, V domains shown)
VH: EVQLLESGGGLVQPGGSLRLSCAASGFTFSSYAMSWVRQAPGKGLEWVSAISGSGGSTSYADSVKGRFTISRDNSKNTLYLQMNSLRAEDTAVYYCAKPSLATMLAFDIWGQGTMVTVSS
VL: DIQMTQSPSTLSASVGDRVTITCRASQSISSWLAWYQQKPGKAPKLLIYDASSLESGVPSRFSGSGSGTEFTLTISSLQPDDFATYYCQQSKSYPRTFGGGTKVEIKR
notes: human IgG1/kappa
As to B6, the response in experiment [7] was half-maximal at 34.3 nM (EC50). Further, the “FOP (fold binding over the parental cell line)” value in experiment [2] worked out at 67 fold. Moreover, in experiment [3], the Kd was 7.15 nM, the koff was 0.00872 s⁻¹ and the kon was 1.22e+06 M⁻¹ s⁻¹. Also, in [4], the Kd amounted to 54.6 nM, the koff was 0.0727 s⁻¹ and the kon worked out at 1.33e+06 M⁻¹ s⁻¹. Moreover, in experiment [5], the binding result is recorded as “no binding”. Moreover, the binding result in experiment [6] is given as “no binding (tested: FOP 10; 100 nM antibody)”.
